Test: soluble on expression in E. coli; label from the status in PepcDB or PDB records

Row | Sequence | soluble on expression in E. coli
1 | VDLPGNDFDSNDFDAVDLWGADGAEGWTADPIIGVGSAATPDTGPDLDNAHGQAETDTEQEIALFTVTNPPRTVSVSTLMDGRIDHVELSARVAWMSESQLASEILVIADLARQKAQSAQYAFILDRMSQQVDADEHRVALLRKTVGETWGLPSPEEAAAAEAEVFATRYSDDCPAPDDESDPW | soluble
2 | MGSDKIHHHHHHMLTVNNVSLRYGGRKLFEDVNLKFTPGNCYGIIGANGAGKSTFLKILSGEIEPNTGDVSVDSNTRISVLKQDHFQYDEYEVLETVIMGNERLYSIMKEKDALYAKPDFSEEDGIKASTLEGEFAELNGWEAESEAATLLQGLGISTELHSKKMSELIGGEKVKVLLAQALFGNPGILLLDEPTNHLDIKSIAWLEEFLIDFEGTVIVVSHDRHFLNKVCTMIADVDYGKITLYVGNYDFWYKSSTLALEMTKDQNKKKEEKIKELKDFIARFSANASKSKQATSRKKMLDKLNLEDIKPSNRKYPFIGFKPEREPGNDILTVENLSKTIDGEKVLNNVSFIVSKDDKIALVGDNEIAQTTLFKILSGEMEPDSGSYKWGITITNAYFPKDNSEYFNDCDLSLVDWLRQYSEEKSETYIRGFLGRMLFSGEEALKKASVLSGGEKVRCMLAKTMLTNANFLMFDQPTNHLDLESITALNNGLTNYKSNLMFTSHDHEFIQTIANRIIEITNDGIIDRKCTYDEYLEIQ | not soluble
3 | EEILGSLFLKKKKKKKKKKSRNHRYFALLLPIRKMKKFFDSRREQGGSGLGSGSSGGGGSTSGLGSGYIGRVFGIGRQQVTVDEVLAEGGFAIVFLVRTSNGMKCALKRMFVNNEHDLQVCKREIQIMRDLSGHKNIVGYIDSSINNVSSGDVWEVLILMDFCRGGQVVNLMNQRLQTGFTENEVLQIFCDTCEAVARLHQCKTPIIHRDLKVENILLHDRGHYVLCDFGSATNKFQNPQTEGVNAVEDEIKKYTTLSYRAPEMVNLYSGKIITTKADIWALGCLLYKLCYFTLPFGESQVAICDGNFTIPDNSRYSQDMHCLIRYMLEPDPDKRPDIYQVSYFSFKLLKKECPIPNVQNSPIPAKLPEPVKASEAAAKKTQPKARLTDPIPTTETSIAPRQRPKAGQTQPNPGILPIQPALTPRKRATVQPPPQAAGSSNQPGLLASVPQPKPQAPPSQPLPQTQAKQPQAPPTPQQTPSTQAQGLPAQAQATPQHQQQLFLKQQQQQQQPPPAQQQPAGTFYQQQQAQTQQFQAVHPATQQPAIAQFPVVSQGGSQQQLMQNFYQQQQQQQQQQQQQQLATALHQQQLMTQQAALQQKPTMAAGQQPQPQPAAAPQPAPAQEPAIQAPVRQQPKVQTTPPPAVQGQKVGSLTPPSSPKTQRAGHRRILSDVTHSAVFGVPASKSTQLLQAAAAEASLNKSKSATTTPSGSPRTSQQNVYNPSEGSTWNPFDDDNFSKLTAEELLNKDFAKLGEGKHPEKLGGSAESLIPGFQSTQGDAFATTSFSAGTAEKRKGGQTVDSGLPLLSVSDPFIPLQVPDAPEKLIEGLKSPDTSLLLPDLLPMTDPFGSTSDAVIGKVIISVSSVMHDMCACFKNDKYLVNQSLGNSPATPEAKAI | soluble
4 | MNETKVLIEKITEGIQEKKGKNIVIADLTNIDDTICKYFVICQGNSPSQVIAIVDSIKEFTRKGAGTKPSAIDGQRNAEWVAMDFSDVLVHVFLPEARNFYNLEHLWADAKLTTIPDID | soluble
5 | VTAEEHVESEPLTKRDFEALARFRFGIRRYVRFSEDTVRDHGLTPQHYQLLLALKGFPGREWATMRELADRLQLRHHSVVELVDRAQKQGLVERAPHPSDARAVRVELTEHGQLILARLSAMHRDELLRLGPALELPIWDDPPQDR | not soluble
6 | MTHFKGGTMSQFEKYHPILTPHYTFDWLTKVRVIDVFNLYQTSNATATMETTAAQINHTMREIFHDHQLVWGVTARDTNAFVGQVGFAPIDTAKHEATLSVDLTATYQQVTTLREILERLVAFGTVELKLNRLTLILPKHDDLMAQILAGLNFSTTDHLTFNYHQ | not soluble
7 | MLNDVFILTQIKEGNIKAFETLFRQYYTPLRLYAASITGVPDVAEEIVEELFYVFWKDREKLEIFHSVKNYLYRSVRNRSIQYCEHQDVKRRYQDAILSVPVNIASPDPQEQIEYKELQQIINRTLEKLPERRLHIFRLHHTEGKKYSEIASLLSLSVKTVEKEMTRALRTLRKEIENYIQIS | not soluble
8 | MTTNAIDGSLWLTNAVQPERKTGNQILGKDDFLKILLAQLENQDPLNPMEDKDFIAQMASFSSLEQMMNIANLMQQWMQASSRDALLRYSEWIGKTVHWQDGETMMSAVVQSVMQKDGQVTLGLDNGTTIAADAVVKVEQKG | not soluble
9 | MGSDKIHHHHHHMNDLNVLVLEDEPFQRLVAVTALKKVVPGSILEAADGKEAVAILESCGHVDIAICDLQMSGMDGLAFLRHASLSGKVHSVILSSEVDPILRQATISMIECLGLNFLGDLGKPFSLERITALLTRYNARRQDLPRQIEVAELPSVADVVRGLDNGEFEAYYQPKVALDGGGLIGAEVLARWNHPHLGVLPPSHFLYVMETYNLVDKLFWQLFSQGLATRRKLAQLGQPINLAFNVHPSQLGSRALAENISALLTEFHLPPSSVMFEITETGLISAPASSLENLVRLRIMGCGLAMDDFGAGYSSLDRLCEFPFSQIKLDRTFVQKMKTQPRSCAVISSVVALAQALGISLVVEGVESDEQRVRLIELGCSIAQGYLFARPMPEQHFLDYCSGS | not soluble
10 | MFQDMSKDFDIKRIKRSNTSCSTGVGAHVHPFNEIFYLSSGECTSFIDHNIYKFGKGDLVIVPSGCLHRTTYNGKGMHERIVISFRNEATEWIQNQTGKELMENCMKPGVVNIPEKRRDYVVALLDKLIFENDSPDELSPAFIKVGLIELLLFIIRCKNYEENVIKEIDVDNR | not soluble
11 | MRDIQMVLERWGAWAANNHEDVTWSSIAAGFKGLITSKVKSRPQCCDDDAMIICGCMARLKKNNSDLHDLLVDYYVVGMTFMSLAGKHCCSDGYIGKRLQKAEGIIEGMLMALDIRLEMDIVVNNSNLEHHHHHH | not soluble
12 | GPGSMMEATERRRKRERNERNDERRDDCEVLAKTDEKRTIVEELFQRLQSLDHTHMELEARLCRRAEVSDKSGSTSSEREWKGRRARKTRTEVMPGVAEEDYKRIEEFCLDKGKEGSVTRSTTRDVSFGQWRYTYTSGKPSECIACIRKERLFVLDVPVPSGAYDIRFSACTEITGELPSPNFAPTRGYTRHKDRLSVTDGLFRYDLTRVRDKHTTGYEVEVEFLLKDNDEKKITDSHVEELVGRALSLATLTASEG | soluble
13 | MGSDKIHHHHHHMRSPNFYTYAFLNTPDVPLRLPSGNLGQLLLINGNNISAVVEPGISLESSQNNDEEVIKMVLAHDRVICELSQQTTVLPLRFGTYFNSEETLLNHIESHAQEYQKKLDNIQGKTEYTLKLIPRKFEELAKISGGHGRDYFLAKKLHYEHQKSFIGDQNREKHHLINLMMDIYRSSAIIQDYVEEVRLHLLVDRHDKALLFKQVLTLQEKCPHWNLILGEPLPPYHFV | not soluble
14 | RRRPLSCDAASQAGSNYPRCWNCGGPWGPGREDRFFCPQCRALQAPDPTRDYFSLMDCNRSFRVDTAKLQHRYQQLQRLVHPDFFSQRSQTEKDFSEKHSTLVNDAYKTLLAPLSRGLYLLKLHGIEIPERTDYEMDRQFLIEIMEINEKLAEAESEAAMKEIESIVKAKQKEFTDNVSSAFEQDDFEEAKEILTKMRYFSNIEEKIKLKKIPL | not soluble
15 | MSLKNNSEVFNVLHFSDIHIQLRYNVGAEANCTNLPCGAPDSYNKQLLPSSYNFSSYYQHFSPNVAKMEFSFYPDAHYDENSQYIKGDYYDFPLYRGWNFKNAPATSFGGYLTDSPAVLMNSSLISMAKMHKEKNFEFAIFTGDVVDHLLLSCTPEYTKEEEVKSFKAMKFFFNNLTVLPALGNHETGEYGQLSPIAYDFNGSYSWNQDEMVDLWINNEWFPAKDRYDLKSHYAGFSYVTNRGLKVIGLNSNAYYQKNLWSYIDLSTNPDLFGQWEFLVNELIESEEKGQRVWIMAHIPTTDYDTLPLQSRIFGKIVERFSPYTIANIFFAHTHMDQTHILYSTNSSKEAEDIINMSWVMQSVTPLANYNPSWRYYEVENESFNIINSFNYMTKLNDTFVNGGEEPVWEFEYSARELYDPKKTWPERAPLNATFWHKYVFERLRNESDIEFNQQYSNIRYREGHHHHHH | not soluble
16 | MSTVPISGRSQIMLVQDSEILSSSALQYKQFLSKVKISKNATSTAQVRRVGQKVAAATMLYLKQNGLGDMASQMKWEFNVVEDKAVNAFCMPGGKIVVYTGLLKLVGSDAELATVISHEVSHAVARHSNERISQEYLRQMGGNILGAAVSNKSAALQTVIGQAYGIGSQVLITLPYNRKQEYEADKIGLVFMAMAGYNPNAAITFWQKMAAQGNGRVEFLSTHPSDANRIAAIRQYMPEAMKHYKSKLEHHHHHH | soluble
17 | MTFQETISAYIQERYQITPDFPFKKHPDYLVFRHPRNAKWFALIMPLDAQLLGATENKQLTILTVKLAPELIALLKNQPGYFPAYHMNKEHWLSLSEEIPLSQVFSFIDESYQRSY | not soluble
18 | MSFFNPPANSNHGYNDDVNTGYNARMHSKLAEREGFHLGNGSDEPRTLYVGNLDSTVTEDFIATLFNQIGSVTKTKVIFDGSNDPYAFVEFSDHGQASQALQTMNKRLLLDREMKVNWAVEPGQQQSKIDTTRHFHVFVGDLSSEVDNQKLREAFQPFGDVSDAKVIRDTNTTKSKGYGFVSYPKREEAERAIEQMNGQWLGRRTIRTNWATRKPGDQEKPSHYNEKSYDEIYNQTSGDNTSVYVGNIASLTEDEIRQGFASFGRITEVRIFKMQGYAFVKFDNKDAAAKAIVQMNNQDVGGQLVRCSWGKTGDTGKTPGGSYGYGYGNSSSGGNSQPYSGYGGGGAYGGGQGGGGHGGPGQQQSNANSQYWQYYAQYYNNPQLMQQWSNYWQQQGGAPQQQNSGGHQ | not soluble
19 | MSKNIGLNAIEMSYLRQSLSLSAAQVGQLTNHSEAEVLAWENAETQAPELAQKKLLDIDDIIEMQVLNTTDGIEALFKKEPKRHLAFVVYPTQAIYTQYNPEFLSSLPLTELYNTAAWRIKKECKLVLEVDVSLINLNVEAYKAYREQNGLSESRESRAKWAATQL | soluble
20 | MKKPVIGITGNEKTHPDDDIMMSYAAKGFVEGVKDAGGIPIILPIGDQEMACHYISLIDKLILTGGQNVDPKFYGEPKTIDSDDYHLQRDIFELALIKEAIKQKKPIFSVCRGTQLFNVAMGGTLYQDIEDHWQDSSVEYTTQRLVTEPDTVLQEIYGEISHINSFHHQSIKDLAPNLKVVAHDPKDGIIEAVMSTDDVAFLGVQWHPELLFENRPKDKKLFDYVVNEL | not soluble
21 | MSLRIGIVGVGFSEFRIHEEPFYNVAFLAAKRALEDAGIERGEVDSFILGGYDNLGVGRTISNMYTAPAAGAYLRHEIRVSDDALFALPLAFMKVKSGSEITMLLAFGHSSETPIELVELQSLDPFFHRPFNLSLPVFFAMQSYAYRERYGVKEEKIAEVVVRMREKGAKNPRAYIREKVSVEDVLSSEVVSSPLRRLEMAEWCDGCVAFILAEETVARRLSDSPVWVSGLGWSAENYYFDRSLHDLPFVAKSAEMAFKMSGKERKDVEALEISDLTADYYCMILEALGFAETGRGWEFNGDVNFSGGALCTNAYGSTGAFLLASIVERIRKGEIECGMAQSMSGYAQKSCVAILEGEGHHHHHH | soluble
22 | MKNIIACIDGSPTTFATCEASAWVASKINAPLILLHALDKTMRPVVSEFSGQIGLGSQEELLNELAELDEARSKVALKHGKKLLEEATEWVIKKGLTNVEQLQRHGSLLESLIDLENQLRVLVIGKLGEDQSSNKTIGSQLESIIRSIKSHTLVVTSPFSIPTSYLIAFDGSPTSEKLIEKAIKTPLLFGLDCHFVMVDDFAAKSAAFEKAAIKLKNAGLSVHEDILSGSVDEALLKYQKDHQIGMMVMGAYGHSTLRQFFLGSNTTKVLIKSEVPLLLIR | not soluble

Source: the DeepSol protein solubility set
